Laboratory results published in patent US20260242735A1 (UNIVERSIT T BASEL, published 2026).

Experiments:
Experiment in all cases: flow cytometry, transfected cells, IgG;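 note: CD33 point mutants transiently expressed in HEK293-T cells, antibody binding read by fluorescence, background subtracted and normalized to wild-type CD33 as 100%, duplicates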
human CD33 D51K = human CD33 D51K (human, UniProt P20138 18-364)
Method: (§1) An alanine scan on human CD33 was performed to the determine the residues on CD33 that are involved in binding to the antibodies investigated. […] Briefly, a mutation library of CD33 was created by high-throughput, site-directed mutagenesis. Each residue was individually mutated to alanine, with alanine codons mutated to serine. The mutant library was arrayed in 384-well microplates and transiently transfected into HEK293-T. Following transfection, cells were incubated with the indicated antibodies (IgG or Fab) at concentrations pre-determined using an independent immunofluorescence titration curve on wild type CD33. […] Binding of each antibody to each mutant clone was determined in duplicates. For each point, background fluorescence was subtracted from the raw data, which were then normalized to antibody reactivity with wild type CD33.
(§2) Antibodies were screened for binding to the human CD33 variants in IgG format. […] For each mutation, background fluorescence was subtracted from the raw data, which were then normalized to antibody reactivity with wild-type CD33.

human CD33 D51Y = human CD33 D51Y (human, UniProt P20138 18-364)
Method: as §1, §2

human CD33 K52G = human CD33 K52G (human, UniProt P20138 18-364)
Method: as §1, §2

human CD33 K52S = human CD33 K52S (human, UniProt P20138 18-364)
Method: as §1, §2

human CD33 K52L = human CD33 K52L (human, UniProt P20138 18-364)
Method: as §1, §2

human CD33 K52D = human CD33 K52D (human, UniProt P20138 18-364)
Method: as §1, §2

human CD33 K52E = human CD33 K52E (human, UniProt P20138 18-364)
Method: as §1, §2

human CD33 K52H = human CD33 K52H (human, UniProt P20138 18-364)
Method: as §1, §2

human CD33 K52T = human CD33 K52T (human, UniProt P20138 18-364)
Method: as §1, §2

human CD33 K52I = human CD33 K52I (human, UniProt P20138 18-364)
Method: as §1, §2

human CD33 V56R = human CD33 V56R (human, UniProt P20138 18-364)
Method: as §1, §2

human CD33 M120V = human CD33 M120V (human, UniProt P20138 18-364)
Method: as §1, §2

human CD33 M120L = human CD33 M120L (human, UniProt P20138 18-364)
Method: as §1, §2

human CD33 R122G = human CD33 R122G (human, UniProt P20138 18-364)
Method: as §1, §2

human CD33 R122S = human CD33 R122S (human, UniProt P20138 18-364)
Method: as §1, §2

human CD33 R122E = human CD33 R122E (human, UniProt P20138 18-364)
Method: as §1, §2

human CD33 R122T = human CD33 R122T (human, UniProt P20138 18-364)
Method: as §1, §2

human CD33 Y127H = human CD33 Y127H (human, UniProt P20138 18-364)
Method: as §1, §2

human CD33 Y127E = human CD33 Y127E (human, UniProt P20138 18-364)
Method: as §1, §2

human CD33 Y127R = human CD33 Y127R (human, UniProt P20138 18-364)
Method: as §1, §2

human CD33 S131G = human CD33 S131G (human, UniProt P20138 18-364)
Method: as §1, §2

human CD33 S131N = human CD33 S131N (human, UniProt P20138 18-364)
Method: as §1, §2

human CD33 S131H = human CD33 S131H (human, UniProt P20138 18-364)
Method: as §1, §2

human CD33 S131D = human CD33 S131D (human, UniProt P20138 18-364)
Method: as §1, §2

human CD33 S131I = human CD33 S131I (human, UniProt P20138 18-364)
Method: as §1, §2

human CD33 S131F = human CD33 S131F (human, UniProt P20138 18-364)
Method: as §1, §2

human CD33 S131Y = human CD33 S131Y (human, UniProt P20138 18-364)
Method: as §1, §2

human CD33 S131Q = human CD33 S131Q (human, UniProt P20138 18-364)
Method: as §1, §2

human CD33 P132S = human CD33 P132S (human, UniProt P20138 18-364)
Method: as §1, §2

human CD33 P132T = human CD33 P132T (human, UniProt P20138 18-364)
Method: as §1, §2

human CD33 P132V = human CD33 P132V (human, UniProt P20138 18-364)
Method: as §1, §2

human CD33 P132Y = human CD33 P132Y (human, UniProt P20138 18-364)
Method: as §1, §2

human CD33 P132H = human CD33 P132H (human, UniProt P20138 18-364)
Method: as §1, §2

human CD33 P132D = human CD33 P132D (human, UniProt P20138 18-364)
Method: as §1, §2

human CD33 P132N = human CD33 P132N (human, UniProt P20138 18-364)
Method: as §1, §2

human CD33 L134T = human CD33 L134T (human, UniProt P20138 18-364)
Method: as §1, §2

human CD33 L134I = human CD33 L134I (human, UniProt P20138 18-364)
Method: as §1, §2

human CD33 L134Q = human CD33 L134Q (human, UniProt P20138 18-364)
Method: as §1, §2

human CD33 R122S, sequence (P20138 18-364 R122S limits assumed): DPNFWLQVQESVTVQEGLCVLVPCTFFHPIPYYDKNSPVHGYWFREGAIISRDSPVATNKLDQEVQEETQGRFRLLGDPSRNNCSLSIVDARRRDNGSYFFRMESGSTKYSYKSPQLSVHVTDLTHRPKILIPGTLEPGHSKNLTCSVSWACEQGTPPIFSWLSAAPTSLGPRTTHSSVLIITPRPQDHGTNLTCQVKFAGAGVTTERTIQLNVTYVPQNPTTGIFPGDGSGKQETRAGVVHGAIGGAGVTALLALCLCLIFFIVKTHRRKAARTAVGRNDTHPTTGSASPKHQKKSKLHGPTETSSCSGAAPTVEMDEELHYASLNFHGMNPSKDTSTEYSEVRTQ
human CD33 P132H, sequence (P20138 18-364 P132H limits assumed): as the sequence (P20138 18-364 R122S limits assumed) above, with S105R, P115H counted along it
human CD33 R122T, sequence (P20138 18-364 R122T limits assumed): as the sequence (P20138 18-364 R122S limits assumed) above, with S105T counted along it
human CD33 K52S, sequence (P20138 18-364 K52S limits assumed): as the sequence (P20138 18-364 R122S limits assumed) above, with K35S, S105R counted along it
human CD33 P132N, sequence (P20138 18-364 P132N limits assumed): as the sequence (P20138 18-364 R122S limits assumed) above, with S105R, P115N counted along it
human CD33 S131Q, sequence (P20138 18-364 S131Q limits assumed): as the sequence (P20138 18-364 R122S limits assumed) above, with S105R, S114Q counted along it
human CD33 Y127R, sequence (P20138 18-364 Y127R limits assumed): as the sequence (P20138 18-364 R122S limits assumed) above, with S105R, Y110R counted along it
human CD33 P132Y, sequence (P20138 18-364 P132Y limits assumed): as the sequence (P20138 18-364 R122S limits assumed) above, with S105R, P115Y counted along it
human CD33 P132D, sequence (P20138 18-364 P132D limits assumed): as the sequence (P20138 18-364 R122S limits assumed) above, with S105R, P115D counted along it
human CD33 D51Y, sequence (P20138 18-364 D51Y limits assumed): as the sequence (P20138 18-364 R122S limits assumed) above, with D34Y, S105R counted along it
human CD33 Y127E, sequence (P20138 18-364 Y127E limits assumed): as the sequence (P20138 18-364 R122S limits assumed) above, with S105R, Y110E counted along it
human CD33 D51K, sequence (P20138 18-364 D51K limits assumed): as the sequence (P20138 18-364 R122S limits assumed) above, with D34K, S105R counted along it
human CD33 Y127H, sequence (P20138 18-364 Y127H limits assumed): as the sequence (P20138 18-364 R122S limits assumed) above, with S105R, Y110H counted along it
human CD33 L134I, sequence (P20138 18-364 L134I limits assumed): as the sequence (P20138 18-364 R122S limits assumed) above, with S105R, L117I counted along it

Row | Binder | Mean % WT Binding (human CD33 D51K) | Mean % WT Binding (human CD33 D51Y) | Mean % WT Binding (human CD33 K52G) | Mean % WT Binding (human CD33 K52S) | Mean % WT Binding (human CD33 K52L) | Mean % WT Binding (human CD33 K52D) | Mean % WT Binding (human CD33 K52E) | Mean % WT Binding (human CD33 K52H) | Mean % WT Binding (human CD33 K52T) | Mean % WT Binding (human CD33 K52I) | Mean % WT Binding (human CD33 V56R) | Mean % WT Binding (human CD33 M120V) | Mean % WT Binding (human CD33 M120L) | Mean % WT Binding (human CD33 R122G) | Mean % WT Binding (human CD33 R122S) | Mean % WT Binding (human CD33 R122E) | Mean % WT Binding (human CD33 R122T) | Mean % WT Binding (human CD33 Y127H) | Mean % WT Binding (human CD33 Y127E) | Mean % WT Binding (human CD33 Y127R) | other results
1 | Refmab #6 (antibody, human IgG1, V domains shown) VH: QVQLQQPGAEVVKPGASVKMSCKASGYTFTSYYIHWIKQTPGQGLEWVGVIYPGNDDISYNQKFQGKATLTADKSSTTAYMQLSSLTSEDSAVYYCAREVRLRYFDVWGQGTTVTVSS VL: EIVLTQSPGSLAVSPGERVTMSCKSSQSVFFSSSQKNYLAWYQQIPGQSPRLLIYWASTRESGVPDRFTGSGSGTDFTLTISSVQPEDLAIYYCHQYLSSRTFGQGTKLEIK | 77.7% | 71.3% | 105% | 107% | 99.4% | 126% | 121% | 86.1% | 106% | 71.6% | 93.2% | 97% | 101% | 112% | 108% | 96% | 114% | 112% | 102% | 108% | Mean % WT Binding (human CD33 S131G): 101%; Mean % WT Binding (human CD33 S131N): 84.6%; Mean % WT Binding (human CD33 S131H): 68.5%; Mean % WT Binding (human CD33 S131D): 88.9%; Mean % WT Binding (human CD33 S131I): 24%; Mean % WT Binding (human CD33 S131F): 2.4%; Mean % WT Binding (human CD33 S131Y): 24.5%; Mean % WT Binding (human CD33 S131Q): 18.9%; Mean % WT Binding (human CD33 P132S): 3.2%; Mean % WT Binding (human CD33 P132T): 11.7%; Mean % WT Binding (human CD33 P132V): 84.6%; Mean % WT Binding (human CD33 P132Y): 1.1%; Mean % WT Binding (human CD33 P132H): 86.6%; Mean % WT Binding (human CD33 P132D): 87.6%; Mean % WT Binding (human CD33 P132N): 2.2%; Mean % WT Binding (human CD33 L134T): 88.4%; Mean % WT Binding (human CD33 L134I): 89.4%; Mean % WT Binding (human CD33 L134Q): 47.1%
2 | Refmab #5 (antibody, human IgG1, V domains shown) VH: QVQLVQSGAEVKKPGASVKVSCKASGYTFTNYDINWVRQAPGQGLEWIGWIYPGDGSTKYNEKFKAKATLTADTSTSTAYMELRSLRSDDTAVYYCASGYEDAMDYWGQGTTVTVSS VL: DIQMTQSPSSLSASVGDRVTINCKASQDINSYLSWFQQKPGKAPKTLIYRANRLVDGVPSRFSGSGSGQDYTLTISSLQPEDFATYYCLQYDEFPLTFGGGTKVEIK | 4.2% | 57.1% | 2.6% | 3.8% | 2.2% | 3.2% | 13.8% | 59.7% | 5% | 1.9% | 87.4% | 85.9% | 103% | 94.9% | 90.6% | 95.8% | 83.2% | 97.2% | 93.9% | 108% | Mean % WT Binding (human CD33 S131G): 97.1%; Mean % WT Binding (human CD33 S131N): 101%; Mean % WT Binding (human CD33 S131H): 96.8%; Mean % WT Binding (human CD33 S131D): 102%; Mean % WT Binding (human CD33 S131I): 84.8%; Mean % WT Binding (human CD33 S131F): 82.3%; Mean % WT Binding (human CD33 S131Y): 89.5%; Mean % WT Binding (human CD33 S131Q): 80.6%; Mean % WT Binding (human CD33 P132S): 105%; Mean % WT Binding (human CD33 P132T): 93.1%; Mean % WT Binding (human CD33 P132V): 86.9%; Mean % WT Binding (human CD33 P132Y): 84.3%; Mean % WT Binding (human CD33 P132H): 88.2%; Mean % WT Binding (human CD33 P132D): 90.5%; Mean % WT Binding (human CD33 P132N): 101%; Mean % WT Binding (human CD33 L134T): 96.5%; Mean % WT Binding (human CD33 L134I): 92.9%; Mean % WT Binding (human CD33 L134Q): 62.2%
